Measured values published in the supplement of paper PMC5998384.

Legend:
HeLa Kyoto [1] = test: thermal stability score vs G1/S (z-score of summed log2 fold changes over temperatures); higher = more thermally stable than in G1/S
HeLa Kyoto [2] = test: melting temperature (median over replicates), in situ; higher = more thermally stable
HeLa Kyoto [3] = test: solubility change mitosis vs G1/S (difference of NP-40 vs SDS log2 ratios) (log2 ratio difference); higher = more soluble in mitosis
HeLa Kyoto [4] = test: solubility in G1/S (NP-40 vs SDS abundance) (log2 ratio); higher = more soluble; conditions: cell cycle stage: G1/S
[5] = cell cycle stage: early G1 (4.5 h after nocodazole release)
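For melting temperature (median over replicates), in situ in this document: HeLa Kyoto cells synchronized by double thymidine or nocodazole block, proteins quantified by TMT10plex mass spectrometry, three independent biological replicates.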
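For solubility change mitosis vs G1/S (difference of NP-40 vs SDS log2 ratios) in this document: synchronized HeLa Kyoto cells (double thymidine block for G1/S, nocodazole release for mitosis), protein amounts in NP-40 versus SDS lysates quantified by mass spectrometry, three biological replicates.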
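For solubility in G1/S (NP-40 vs SDS abundance) in this document: HeLa Kyoto cells arrested at G1/S by double thymidine block, proteins quantified by TMT10plex mass spectrometry in mild NP-40 versus SDS extracts, three biological replicates.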
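For thermal stability score vs G1/S (z-score of summed log2 fold changes over temperatures) in this document: synchronized HeLa Kyoto cells, proteins quantified by TMT10plex mass spectrometry, three biological replicates, mitosis taken 0.5 h after nocodazole release, G1/S directly after double thymidine block.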

Row | Sequence | thermal stability score (HeLa Kyoto [1]; [5]) | thermal stability score (HeLa Kyoto [1]; cell cycle stage: mitosis) | melting temperature (HeLa Kyoto [2]; cell cycle stage: G1/S) [°C] | melting temperature (HeLa Kyoto [2]; cell cycle stage: mitosis) [°C] | solubility change mitosis (log2) (HeLa Kyoto [3]) | solubility in G1/S (log2) (HeLa Kyoto [4])
1 | MGRLASRPLLLALLSLALCRGRVVRVPTATLVRVVGTELVIPCNVSDYDGPSEQNFDWSFSSLGSSFVELASTWEVGFPAQLYQERLQRGEILLRRTANDAVELHIKNVQPSDQGHYKCSTPSTDATVQGNYEDTVQVKVLADSLHVGPSARPPPSLSLREGEPFELRCTAASASPLHTHLALLWEVHRGPARRSVLALTHEGRFHPGLGYEQRYHSGDVRLDTVGSDAYRLSVSRALSADQGSYRCIVSEWIAEQGNWQEIQEKAVEVATVVIQPSVLRAAVPKNVSVAEGKELDLTCNITTDRADDVRPEVTWSFSRMPDSTLPGSRVLARLDRDSLVHSSPHVALSHVDARSYHLLVRDVSKENSGYYYCHVSLWAPGHNRSWHKVAEAVSSPAGVGVTWLEPDYQVYLNASKVPGFADDPTELACRVVDTKSGEANVRFTVSWYYRMNRRSDNVVTSELLAVMDGDWTLKYGERSKQRAQDGDFIFSKEHTDTFNFRIQRTTEEDRGNYYCVVSAWTKQRNNSWVKSKDVFSKPVNIFWALEDSVLVVKARQPKPFFAAGNTFEMTCKVSSKNIKSPRYSVLIMAEKPVGDLSSPNETKYIISLDQDSVVKLENWTDASRVDGVVLEKVQEDEFRYRMYQTQVSDAGLYRCMVTAWSPVRGSLWREAATSLSNPIEIDFQTSGPIFNASVHSDTPSVIRGDLIKLFCIITVEGAALDPDDMAFDVSWFAVHSFGLDKAPVLLSSLDRKGIVTTSRRDWKSDLSLERVSVLEFLLQVHGSEDQDFGNYYCSVTPWVKSPTGSWQKEAEIHSKPVFITVKMDVLNAFKYPLLIGVGLSTVIGLLSCLIGYCSSHWCCKKEVQETRRERRRLMSMEMD [PTGFRN] | -2.55 | -2.42 | 56.7 | 57.1 | -0.133 | 0.0152
2 | MGRLDGKVIILTAAAQGIGQAAALAFAREGAKVIATDINESKLQELEKYPGIQTRVLDVTKKKQIDQFANEVERLDVLFNVAGFVHHGTVLDCEEKDWDFSMNLNVRSMYLMIKAFLPKMLAQKSGNIINMSSVASSVKGVVNRCVYSTTKAAVIGLTKSVAADFIQQGIRCNCVCPGTVDTPSLQERIQARGNPEEARNDFLKRQKTGRFATAEEIAMLCVYLASDESAYVTGNPVIIDGGWSL [BDH2] | 0.0249 | -0.29 | 51.4 | 51.3 | -0.101 | 0.0418
3 | MGRRALLLLLLSFLAPWATIALRPALRALGSLHLPTNPTSLPAVAKNYSVLYFQQKVDHFGFNTVKTFNQRYLVADKYWKKNGGSILFYTGNEGDIIWFCNNTGFMWDVAEELKAMLVFAEHRYYGESLPFGDNSFKDSRHLNFLTSEQALADFAELIKHLKRTIPGAENQPVIAIGGSYGGMLAAWFRMKYPHMVVGALAASAPIWQFEDLVPCGVFMKIVTTDFRKSGPHCSESIHRSWDAINRLSNTGSGLQWLTGALHLCSPLTSQDIQHLKDWISETWVNLAMVDYPYASNFLQPLPAWPIKVVCQYLKNPNVSDSLLLQNIFQALNVYYNYSGQVKCLNISETATSSLGTLGWSYQACTEVVMPFCTNGVDDMFEPHSWNLKELSDDCFQQWGVRPRPSWITTMYGGKNISSHTNIVFSNGELDPWSGGGVTKDITDTLVAVTISEGAHHLDLRTKNALDPMSVLLARSLEVRHMKNWIRDFYDSAGKQH [PRCP] | -0.942 | -2.23 | 58.5 | 54.1 | -0.246 | 0.0413
4 | MGRRSSDTEEESRSKRKKKHRRRSSSSSSSDSRTYSRKKGGRKSRSKSRSWSRDLQPRSHSYDRRRRHRSSSSSSYGSRRKRSRSRSRGRGKSYRVQRSRSKSRTRRSRSRPRLRSHSRSSERSSHRRTRSRSRDRERRKGRDKEKREKEKDKGKDKELHNIKRGESGNIKAGLEHLPPAEQAKARLQLVLEAAAKADEALKAKERNEEEAKRRKEEDQATLVEQVKRVKEIEAIESDSFVQQTFRSSKEVKKSVEPSEVKQATSTSGPASAVADPPSTEKEIDPTSIPTAIKYQDDNSLAHPNLFIEKADAEEKWFKRLIALRQERLMGSPVA [RSRC1] | -1.05 | -4.78 | 51.5 | 50.4 | 0.261 | -0.945
5 | MGRRSTSSTKSGKFMNPTDQARKEARKRELKKNKKQRMMVRAAVLKMKDPKQIIRDMEKLDEMEFNPVQQPQLNEKVLKDKRKKLRETFERILRLYEKENPDIYKELRKLEVEYEQKRAQLSQYFDAVKNAQHVEVESIPLPDMPHAPSNILIQDIPLPGAQPPSILKKTSAYGPPTRAVSILPLLGHGVPRLPPGRKPPGPPPGPPPPQVVQMYGRKVGFALDLPPRRRDEDMLYSPELAQRGHDDDVSSTSEDDGYPEDMDQDKHDDSTDDSDTDKSDGESDGDEFVHRDNGERDNNEEKKSGLSVRFADMPGKSRKKKKNMKELTPLQAMMLRMAGQEIPEEGREVEEFSEDDDEDDSDDSEAEKQSQKQHKEESHSDGTSTASSQQQAPPQSVPPSQIQAPPMPGPPPLGPPPAPPLRPPGPPTGLPPGPPPGAPPFLRPPGMPGLRGPLPRLLPPGPPPGRPPGPPPGPPPGLPPGPPPRGPPPRLPPPAPPGIPPPRPGMMRPPLVPPLGPAPPGLFPPAPLPNPGVLSAPPNLIQRPKADDTSAATIEKKATATISAKPQITNPKAEITRFVPTALRVRRENKGATAAPQRKSEDDSAVPLAKAAPKSGPSVPVSVQTKDDVYEAFMKEMEGLL [WBP11] | -1.77 | -3.87 | 55.4 | 53.8 | 0.186 | 0.135
